No end group written: not given here.

Results on 3 molecules are retold here after doi:10.1101/2024.03.24.586400 (bioRxiv, 2024).

Holding throughout (experiment): grating-coupled interferometry
Assay [1] addresses SARNP UCM-1 and UCM-4 peptides.
The target of assay [2] is SARNP UCM-1 peptide (GCI) (human).
Assay [3] has as its target TREX-2^M, minimal recombinant TREX-2 complex (GANP Sac3 domain residues 582-1004, PCID2, SEM1) (human) (UniProt O60318).
Assay [4] deals with UAP56 (DDX39B), recombinant wild type (human, UniProt Q13838 1-428).
UAP56 (DDX39B), recombinant wild type (human, UniProt Q13838 1-428), sequence (Q13838 whole entry): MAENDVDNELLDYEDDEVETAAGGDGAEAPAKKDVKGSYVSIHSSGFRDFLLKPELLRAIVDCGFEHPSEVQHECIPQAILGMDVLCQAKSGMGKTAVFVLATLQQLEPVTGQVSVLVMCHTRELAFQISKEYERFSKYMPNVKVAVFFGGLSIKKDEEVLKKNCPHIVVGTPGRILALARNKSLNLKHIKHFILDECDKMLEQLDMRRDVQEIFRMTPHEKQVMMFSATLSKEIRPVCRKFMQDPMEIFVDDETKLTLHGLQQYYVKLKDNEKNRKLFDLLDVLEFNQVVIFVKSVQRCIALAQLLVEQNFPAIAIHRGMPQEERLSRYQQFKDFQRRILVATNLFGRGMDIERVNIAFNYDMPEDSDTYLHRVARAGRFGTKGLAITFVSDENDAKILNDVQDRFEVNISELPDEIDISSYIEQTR

UAP56 (DDX39B), recombinant wild type (from UniProt Q13838 1-428) (enzyme), sequence (Q13838 whole entry): as above
TREX-2^M, minimal recombinant TREX-2 complex (GANP Sac3 domain residues 582-1004, PCID2, SEM1) (human), sequence (O60318 582-1004, chain 1 of 3): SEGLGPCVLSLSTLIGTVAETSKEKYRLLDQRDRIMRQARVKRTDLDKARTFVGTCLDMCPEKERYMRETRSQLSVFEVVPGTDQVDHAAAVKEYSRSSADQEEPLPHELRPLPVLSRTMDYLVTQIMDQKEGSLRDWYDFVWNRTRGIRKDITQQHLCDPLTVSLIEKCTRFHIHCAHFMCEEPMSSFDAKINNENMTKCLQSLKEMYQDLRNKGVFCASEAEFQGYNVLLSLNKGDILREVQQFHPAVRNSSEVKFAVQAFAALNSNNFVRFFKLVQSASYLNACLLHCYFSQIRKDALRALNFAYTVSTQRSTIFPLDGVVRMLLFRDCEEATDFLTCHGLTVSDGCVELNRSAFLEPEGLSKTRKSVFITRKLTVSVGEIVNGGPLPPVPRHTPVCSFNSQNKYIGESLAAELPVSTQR
TREX-2^M, minimal recombinant TREX-2 complex (GANP Sac3 domain residues 582-1004, PCID2, SEM1) (human), sequence (Q5JVF3 whole entry, chain 2 of 3, further chain, the tested form may be a part): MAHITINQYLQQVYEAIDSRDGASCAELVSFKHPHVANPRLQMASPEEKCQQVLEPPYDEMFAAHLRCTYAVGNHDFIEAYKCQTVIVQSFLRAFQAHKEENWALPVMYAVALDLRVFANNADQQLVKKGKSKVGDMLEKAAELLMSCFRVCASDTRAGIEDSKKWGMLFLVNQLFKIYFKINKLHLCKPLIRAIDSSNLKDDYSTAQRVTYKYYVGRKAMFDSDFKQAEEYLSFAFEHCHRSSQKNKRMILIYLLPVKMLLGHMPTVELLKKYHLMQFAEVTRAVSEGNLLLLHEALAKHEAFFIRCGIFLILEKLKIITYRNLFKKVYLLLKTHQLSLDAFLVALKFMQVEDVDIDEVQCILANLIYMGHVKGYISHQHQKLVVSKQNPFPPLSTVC
TREX-2^M, minimal recombinant TREX-2 complex (GANP Sac3 domain residues 582-1004, PCID2, SEM1) (human), sequence (P60896 whole entry, chain 3 of 3, further chain, the tested form may be a part): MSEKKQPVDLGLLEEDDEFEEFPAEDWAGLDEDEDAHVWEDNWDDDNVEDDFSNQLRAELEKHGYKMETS

As usually defined, the Kd is the free concentration of one partner at which half of the binding sites on the other are occupied at equilibrium, for simple one-to-one binding. Take “UAP56 (DDX39B), recombinant wild type (from UniProt Q13838 1-428) (enzyme)”: the Kd in assay [1] is 10 to 20 µM; in assay [2], 12 µM. As to “UAP56 lacking residues 1-28 (from UniProt Q13838 28-428) (domain or fragment)”, the Kd in assay [3] came out at 0.17 µM. As to MDMSLDDII (also: biotin, position not given here) [ALYREF N-UBM peptide (GCI)], the Kd in assay [4] came out at 24 µM.
